# Measurements reported in US20170267762A1 (APOLLOMICS, published 2017).
# Residue numbers refer to the chain shown, from its start.
# T1: mouse PD-1 (mouse, UniProt Q02242 25-169, limits assumed)
# T1 sequence (looked up): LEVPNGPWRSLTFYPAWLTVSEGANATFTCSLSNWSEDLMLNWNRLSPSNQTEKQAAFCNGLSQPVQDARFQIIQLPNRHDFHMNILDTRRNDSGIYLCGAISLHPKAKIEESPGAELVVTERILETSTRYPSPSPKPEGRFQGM
# T2: human CTLA4 (human, UniProt P16410 36-161, limits assumed)
# T2 sequence (looked up): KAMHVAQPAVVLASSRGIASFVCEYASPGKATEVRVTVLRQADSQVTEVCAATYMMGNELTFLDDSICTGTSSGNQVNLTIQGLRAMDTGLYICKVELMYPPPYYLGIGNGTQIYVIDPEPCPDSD
# T3: human ICOS (human, UniProt Q9Y6W8 21-140, limits assumed)
# T3 sequence (looked up): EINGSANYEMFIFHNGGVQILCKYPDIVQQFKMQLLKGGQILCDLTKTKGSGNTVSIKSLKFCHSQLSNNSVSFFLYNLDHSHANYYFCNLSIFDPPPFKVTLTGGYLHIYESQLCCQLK
# B1: 14A6 murine anti-PD-1 antibody (antibody, V domains shown)
# VH: DVQLQESGPGLVKPSQSLSLTCTVTGYSITSDYAWNWIRQFPGNQLEWMAYISYSGYTSYNPSLKSRISITRDTSRNQFFLQLNSVTTEDTATYYCARSLDYDYGTMDYWGQGTSVTVSS
# VL: QIVLSQSPAILSASPGEKVTMTCRANSSVSSMHWYQQKPGSSPEPWIYAISNLAFGVPARFSGSGSGTSYSLTISRVEAEDAATYFCQQWNSRPPTFGGGTKLEIKR
# notes: Purified hybridoma antibody; also called 14A6-mIgG1
# B2: 5A8 murine anti-PD-1 antibody (antibody, V domains shown)
# VH: QVQLQQSGDELVRPGTSVKMSCKAAGYTFTNNWIGWVKQRPGHGLEWIGDFYPGGGYTNYNEKFKGKATLTADTSSSTAYMQLSSLTSEDSAIYYCARGYGTNYWYFDVWGAGTTVTVSS
# VL: NIVMTQTPKILFISAGDRVTITCKASQSVSNDVAWYQQKPGQSPKLLIYYAFTRYIGVPDRFTGSGYGTDFTFTISTVQAEDLAVYFCQQDYSSPYTFGGGTKLEIKR
# notes: Purified hybridoma antibody; also called 5A8-mIgG1
# B3: 10D1 murine anti-PD-1 antibody (antibody, V domains shown)
# VH: EVKLVESGGGLVKPGGSLKLSCAASGFTFSSYGMSWLRQTPEKRLEWVATMSGGGRDIYYPDSMKGRFTISRDNAKNNLYLQMSSLRSEDTALYYCARQYYDDWFAYWGQGTLVTVSA
# VL: DIVLTQTPATLSVTPGDSVSLSCRASQSISNNLHWYQQKSHESPRLLIKYASQSISGIPSRFSGSGSGTDFTLNINSVETEDFGMYFCQQSNSWPLTFGAGTKLELKR
# notes: Purified hybridoma antibody; also called 10D1-mIgG1
# B4: chimeric 15H5-hIgG4 (antibody, V domains shown)
# VH: EVKLVESGGGLVKPGGSLKLSCAASGFAFRSYDMSWVRQTPEKILEWVATISGGGSYTYYQDSVKGRFTISRDNARNTLYLQMSSLRSEDTALYYCASPYGPYFDYWGQGTTLTVSS
# VL: DIQMNQSPSSLSASLGDTITITCHASQSINVWLSWYQQKPGNIPKLLIYRASNLHTGVPSRFSGSGSGTGFTLTISSLQPDDIATYYCQQGQSYPWTFGGGTKLEIKR
# notes: Mouse variable regions with human IgG4 constant region
# B5: chimeric 22A5-hIgG4 (antibody, V domains shown)
# VH: EVKLVESGGGLVKPGGSLKLSCSASGFSFSYYDMSWVRQTPEKGLEWVATISGGGRNTYFIDSVKGRFTISRDNVKNNLYLLMSSLRSEDTALYYCASPYEGAVDFWGQGTSVTVSS
# VL: DIVMTQSHKVMSTSVGDRVSITCKASQDVDNAVAWYQQNPGQSPKLLIKWASTRHHGVPDRFTGSGSGTDFTLTISTVQSEDLADFFCQQYSTFPYTFGGGTKLEIKR
# notes: as for B4
# B6: chimeric 6E1-hIgG4 (antibody, V domains shown)
# VH: B3 VH with L37V, M51I, I58T, P61L, M64V, A97V, T115S, V116N
# VL: B3 VL with I29L, N74S, L106M
# notes: as for B4
# B7: chimeric 7D3-hIgG4 (antibody, V domains shown)
# VH: B3 VH with A23G, L37V, M51I, M64V, F68L, A97V
# VL: B3 VL with T7S, N32D, A51V, N74S, N92D
# notes: as for B4
# Molecular target: T1, mouse PD-1
# Assay: assays not detailed
row,Binder,binding result
1,B1,no binding
2,B2,no binding
3,B3,no binding

# Molecular target: T4, human PD-1 extracellular domain fused with human Fc tag (hPD-1-hFc) (human)
# T4 construct: also called human PD-1-hFc
# Assay: ELISA on coated PD1-hFc
# Method: (§1) ELISA binding analysis was conducted based on human PD-1-hFc Protein. 96-well plates (Costar, Cat No:9018) were coated with 100 μL of 2 μg/ml PD1-hFc (CrownBio) in coating buffer (PBS, Hyclone, Cat No:SH30256.01B) overnight at 4° C. The wells were aspirated and non-specific binding sites were blocked by adding 200 μL of blocking buffer with 1% (w/v) of bovine serum albumin (BSA, Roche, Cat No: 738328) and incubating for 1 hour at 37° C. After the plates are washed three times with wash buffer (PBS with 0.05%(v/v) Tween20 (Sigma, Cat No:P1379), 100 μL/well of a suitable dilutions of hybridoma supernatant in blocking buffer were added and incubated at room temperature for 1 hour. The plates were washed and incubated with 100 μL/well of Goat anti-Mouse IgG (H+L) (Thermo, Cat No: 31432) in blocking buffer for 60 min. After the plates were washed, 100 μL/well of substrate solution (TMB(eBioscience, Cat No:00-4201-56) was added and the plates were incubated for 2min at room temperature. 100 μL/well of stop solution (2N H2SO4) was added to stop the reaction. The colorimetric signals were developed and read at 450 nm using a Auto Plate SpectraMax Plus (Supplier: Molecular Devices; Model: MNR0643; Software: SoftMax Pro v5.4).
# (§2) The purified hybridoma antibodies were characterized further based on ELISA and FACS analyses.
# T4 sequence (chain, as listed by the source limits assumed): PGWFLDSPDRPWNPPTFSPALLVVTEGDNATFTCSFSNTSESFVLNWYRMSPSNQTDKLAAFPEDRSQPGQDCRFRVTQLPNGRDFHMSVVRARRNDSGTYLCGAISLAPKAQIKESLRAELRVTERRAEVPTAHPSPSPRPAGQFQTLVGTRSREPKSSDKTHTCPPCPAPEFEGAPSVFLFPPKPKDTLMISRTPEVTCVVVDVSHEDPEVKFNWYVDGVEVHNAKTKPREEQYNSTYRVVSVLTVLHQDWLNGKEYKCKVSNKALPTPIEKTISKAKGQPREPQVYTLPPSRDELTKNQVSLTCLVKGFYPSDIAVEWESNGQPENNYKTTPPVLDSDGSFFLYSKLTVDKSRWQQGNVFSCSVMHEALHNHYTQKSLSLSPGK
row,Binder,EC50
1,B1,0.00707 µg/mL
2,B2,0.0112 µg/mL
3,B3,0.0172 µg/mL

# Molecular target: T4, human PD-1 extracellular domain fused …
# Assay: ELISA on coated PD1-hFc
# Remark: another data set of the same source
# Method: as §1
# (§3) Freestyle 293 cells (200 mL at 10⁶/mL) were transfected with 100 μg of each of the chimeric heavy and light chain expression plasmids and cultured for 6 days. The chimeric antibody in the supernatant was then purified with Protein-G column (GE healthcare).
row,Binder,EC50
1,B4,0.0818 µg/mL
2,B5,0.0413 µg/mL
3,B6,0.0325 µg/mL
4,B7,0.0517 µg/mL

# Molecular target: T5, human PD-1 on cells (293T cells transfected with human PD-1) (human, UniProt Q15116 25-288)
# T5 construct: whole, on cells; Also used as the target for the functional rows, where PD-1 stands on human T cells
# Assay: FACS on hPD-1-293T cells
# Method: The cells were incubated with the indicated antibody (20 ug/ml with the dilution of ⅕) at 4° C. for 1 h. Cells were washed three times with FACS buffer. A secondary antibody (PE Goat anti-mouse: 1:200; PE mouse anti-human: 1:10) was added to the cells at 100 ul/well, and incubated at 4° C. for 40min. Cells were washed three times with FACS buffer and analyzed by FACS Array.
# as §3
# T5 sequence (Q15116 25-288): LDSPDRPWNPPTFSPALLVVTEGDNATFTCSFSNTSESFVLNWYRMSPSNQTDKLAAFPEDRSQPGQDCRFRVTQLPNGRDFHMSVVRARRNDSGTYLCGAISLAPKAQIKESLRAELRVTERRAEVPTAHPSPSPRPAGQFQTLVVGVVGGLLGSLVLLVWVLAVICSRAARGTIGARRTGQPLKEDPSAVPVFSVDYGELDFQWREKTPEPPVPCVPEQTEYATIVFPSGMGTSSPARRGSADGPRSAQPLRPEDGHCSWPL
row,Binder,EC50
1,B4,0.244 µg/mL
2,B5,0.145 µg/mL
3,B6,0.143 µg/mL
4,B7,0.131 µg/mL

# Molecular target: T4, human PD-1 extracellular domain fused …
# Assay: ELISA binding (summary table)
# Method: as §1, §2
row,Binder,EC50
1,B1,0.00707 µg/mL
2,B2,0.0112 µg/mL
3,B3,0.0172 µg/mL

# Molecular target: T6, human PD-1 (construct not stated) (human, UniProt Q15116 25-167, limits assumed)
# T6 construct: also called PD-1 analyte
# Assay: Biacore, antibody captured, PD-1 analyte
# Method: (§4) To further characterize the binding characteristics of the antibodies, 10 hybridoma antibodies were profiled using Biacore (Biacore 3000, GE) to elucidate binding kinetics and calculate equilibrium binding constants. This assay was performed by capture method, using the mouse antibody capture kit (BR-1008-38, GE). After diluting anti-mouse Fc mab to 25 μg/ml in pH 5.0 immobilization buffer, immobilization was conducted with the parameters shown in Table 6 at a flow rate of 5 μl/min. The kinetic runs were done by 1) injecting ligand for typical 0.5-1 min at flow rate of 10 μl/min.; 2) injecting analytes of choice for typical 3 min followed by dissociation in running buffer (1× PBS-P20) for typical 5-10 min at flow rate of 30 μl/min.; and 3) injecting regeneration solution 10 mM Glycine pH1.7 for typical 1-2 min at flow rate of 10 μl/min.
# T6 sequence (Q15116 25-167 limits assumed): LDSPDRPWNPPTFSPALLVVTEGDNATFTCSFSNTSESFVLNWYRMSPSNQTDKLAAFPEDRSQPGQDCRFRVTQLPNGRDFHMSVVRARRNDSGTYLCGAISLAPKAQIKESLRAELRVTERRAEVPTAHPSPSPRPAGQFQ
Binder,Ka,Kd,koff,kon
B1,3.33e+10 M⁻¹,0.03 nM,4.52e-05 s⁻¹,1.51e+06 M⁻¹ s⁻¹
B2,1.7e+10 M⁻¹,0.0587 nM,7.55e-05 s⁻¹,1.29e+06 M⁻¹ s⁻¹
B3,1.6e+10 M⁻¹,0.0623 nM,5.24e-05 s⁻¹,840000 M⁻¹ s⁻¹

# Molecular target: T6, human PD-1 (construct not stated)
# Assay: Biacore (summary table; unit from Table 7)
# Method: as §4
row,Binder,Kd
1,B1,0.03 nM
2,B2,0.0587 nM
3,B3,0.0623 nM

# Molecular target: T2, human CTLA4
# Assay: Interaction with CTLA4, ICOS CD28; assay not detailed
row,Binder,binding result
1,B1,no binding
2,B2,no binding
3,B3,no binding

# Molecular target: T3, human ICOS
# Assay: as above
row,Binder,binding result
1,B1,no binding
2,B2,no binding
3,B3,no binding

# Molecular target: human CD28 (human, UniProt P10747 19-152, limits assumed)
# Assay: as above
# Sequence of human CD28 (P10747 19-152 limits assumed): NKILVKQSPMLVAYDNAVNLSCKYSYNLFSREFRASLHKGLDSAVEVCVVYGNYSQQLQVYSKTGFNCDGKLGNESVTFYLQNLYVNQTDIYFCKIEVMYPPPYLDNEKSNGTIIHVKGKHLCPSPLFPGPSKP
row,Binder,binding result
1,B1,no binding
2,B2,no binding
3,B3,no binding

# Molecular target: T5, human PD-1 on cells (293T cells …)
# Assay: FACS blockage on hPD-1-293T cells, competitor biotin PD-L1
# Method: (§5) Various concentrations of the testing hybridoma antibodies were added to the cell suspension and incubated at 4° C. for 60 minutes in 96 well plates. […] Plates were washed 3 times, and mouse anti-biotin PE antibody (Biolgend, cat# 409004) was added. Flow cytometric analyses were performed using a FACS Array.
# as §2
row,Binder,IC50
1,B1,0.0211 µg/mL
2,B2,0.0282 µg/mL
3,B3,0.0369 µg/mL

# Molecular target: T5, human PD-1 on cells (293T cells …)
# Assay: FACS blockage on hPD-1-293T cells, competitor biotin PD-L2
# Method: as §5, §2
row,Binder,IC50
1,B1,0.092 µg/mL
2,B2,0.0188 µg/mL
3,B3,0.15 µg/mL

# Molecular target: T5, human PD-1 on cells (293T cells …)
# Assay: FACS blockage on hPD-1-293T cells, competitor biotin PD-L1
# Remark: another data set of the same source
# Method: as §5, §3
row,Binder,IC50
1,B4,0.101 µg/mL
2,B5,0.0843 µg/mL
3,B6,0.054 µg/mL

# Molecular target: T7, human PD-1 extracellular domain fused with mouse Fc (PD-1-mFc) (human, UniProt Q15116 25-170)
# T7 construct: extracellular domain; not used because of the label; also called hPD-1-mFc; human PD-1-mouse Fc fusion protein
# Assay: blockage ELISA, coated PD-1-mFc, competitor PDL-1-mFc-biotin
# Method: (§6) PD-1-mFc antigen (CrownBio) was suspended in PBS (Hyclone,Cat No:SH30256.01B) buffer (2 ug/ml, 100 ul/ well) and coated on the 96 well plate (costar, Cat No.:9018) 4° C. overnight. Plates were washed 3 times using washing buffer: PBS+0.05% Tween 20(Sigma, Cat No.:P1379). 200 ul of blocking buffer (PBS+1%BSA(Roche, Cat No.:738328)), was added to each well, incubated at 37° C. for 1 hour, and washed 3 times. Various concentrations (suitable dilutions of hybridoma supernatant in PBS) of the anti-PD-1 Abs were added to the wells (100 μl/well) and incubated at 37° C. for 1 hour. […] Secondary antibody (Avidin HRP eBioscience cat No.:E07418-1632, 1:500, 100 ul/well) was added, incubated at 37 ° C. for 0.5 hour, and washed 3 times. TMB (Sigma, Cat No.: T0440, 100 ul/well) was added, and incubated for 3 min at RT. To stop the reaction, 2N H2SO4 (100 ul/well), was added. The colorimetric signals were developed and read at 450 nm using a Auto Plate SpectraMax Plus (Supplier: Molecular Devices; Model: MNR0643; Software: SoftMax Pro v5.4).
# as §2
# T7 sequence (Q15116 25-170): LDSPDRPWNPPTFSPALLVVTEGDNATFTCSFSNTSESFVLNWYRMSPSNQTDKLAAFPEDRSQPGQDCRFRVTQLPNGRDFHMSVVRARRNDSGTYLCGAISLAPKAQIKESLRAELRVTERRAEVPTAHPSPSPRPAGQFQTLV
row,Binder,IC50
1,B1,0.923 µg/mL
2,B2,1.13 µg/mL
3,B3,1.41 µg/mL

# Molecular target: T7, human PD-1 extracellular domain fused …
# Assay: as above
# Remark: another data set of the same source
# Method: as §6, §3
row,Binder,IC50
1,B4,1.37 µg/mL
2,B5,1.01 µg/mL
3,B6,0.869 µg/mL
4,B7,0.948 µg/mL

# Molecular target: T7, human PD-1 extracellular domain fused …
# Assay: blockage ELISA, competitor PDL-1-mFc-biotin (summary table; IC50 in ng/ml in Table 2)
# Method: as §6
row,Binder,IC50
1,B1,0.923 µg/mL
2,B2,1.13 µg/mL
3,B3,1.41 µg/mL
